5 molecules from article PMC5992170, “Modular ssDNA binding and inhibition of telomerase activity by designer PPR proteins” can be followed below.

Series [1] has as its system cPPR-NRE (synthetic construct). Put plainly: EMSA. The following applies: dU as printed (AUUGUAUAUA); EMSA: 10 mM HEPES pH 8.0, 1 mM EDTA, 50 mM KCl, 2 mM DTT, 0.1 mg/ml BSA, 0.02% Tween-20, room temperature 30 min, 0.83 uM probe, 0-10 uM protein (Kd values …).
In series [2] the target is T1, cPPR-Telo1 (tag removed) (synthetic construct, UniProt PDB:5ORQ_1 1-364).
T1 chain: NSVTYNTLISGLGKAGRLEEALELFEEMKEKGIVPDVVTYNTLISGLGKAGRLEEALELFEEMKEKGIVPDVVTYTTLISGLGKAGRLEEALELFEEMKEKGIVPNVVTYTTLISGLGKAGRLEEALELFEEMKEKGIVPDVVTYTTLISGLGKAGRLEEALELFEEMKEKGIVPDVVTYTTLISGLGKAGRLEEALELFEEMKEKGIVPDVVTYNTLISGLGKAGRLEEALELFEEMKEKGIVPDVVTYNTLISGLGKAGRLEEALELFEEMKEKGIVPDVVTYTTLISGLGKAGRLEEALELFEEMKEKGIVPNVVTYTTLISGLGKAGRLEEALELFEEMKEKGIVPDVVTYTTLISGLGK
As to the kind of experiment: X-ray crystallography (1.95 A); pH 4.6, 20 mM CaCl2; EMSA: 10 mM HEPES pH 8.0, 1 mM EDTA, 50 mM KCl, 2 mM DTT, 0.1 mg/ml BSA, 0.02% Tween-20, room temperature 30 min, 0.83 uM probe, 0-10 uM protein (Kd values only in Supplementary Fig. 2 graphic). As to conditions: protein: recombinant; tags: none (GST-His removed by TEV); single strand.

The target in series [3] is T2, cPPR-Telo1 (synthetic construct, UniProt PDB:5ORQ_1 1-364).
T2 chain: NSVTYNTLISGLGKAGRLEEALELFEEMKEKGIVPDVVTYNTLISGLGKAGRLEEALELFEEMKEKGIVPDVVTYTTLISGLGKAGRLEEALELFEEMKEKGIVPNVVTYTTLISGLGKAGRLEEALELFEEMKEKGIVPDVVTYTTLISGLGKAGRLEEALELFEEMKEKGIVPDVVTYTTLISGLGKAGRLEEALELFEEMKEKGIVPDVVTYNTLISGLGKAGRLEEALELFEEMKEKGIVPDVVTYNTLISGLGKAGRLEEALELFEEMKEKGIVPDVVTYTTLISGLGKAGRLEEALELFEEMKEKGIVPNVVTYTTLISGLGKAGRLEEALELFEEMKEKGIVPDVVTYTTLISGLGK
As to the kind of experiment: EMSA; EMSA: 10 mM HEPES pH 8.0, 1 mM EDTA, 50 mM KCl, 2 mM DTT, 0.1 mg/ml BSA, 0.02% Tween-20, room temperature 30 min, 0.83 uM probe, 0-10 uM protein (Kd values only in Supplementary Fig. 2 graphic). The following applies: protein: recombinant, tags: GST-His (pETM30), label: 5'-fluorescein via hexaethyleneglycol spacer.

AUUGUAUAUA [NRE ssDNA] displayed a binding signal (fold lower affinity than NRE RNA) in series [1] of 3.

B1: cPPR-Telo1 target ssDNA (ssDNA)
DNA: TTAGGGTTAG
For the molecule B1, the binding result in series [2] is given as “binds”.

B2: Telo-ssDNA (ssDNA)
DNA: GGTTAGGGTTAG
On to B2, for which the binding result in series [3] (single strand) is “binds”.

B3: Primer GG-a (Telo-ssDNA-GG) (structured_DNA)
DNA: GGTTAGGGTTAGGGTTAGGG
Consider B3, for which the binding result in series [3] (potential intramolecular G4) was “binds”.

B4: Primer a (ssDNA)
DNA: TTAGGGTTAGGGTTAGGG
As to B4, in series [3] (single strand, cannot form G4), the binding result is on record as “binds”.
